In patent US20150104457A1 (OREGA BIOTECH, published 2015):
Several values for one entry are separate records, joined by “and”; a condition that tells them apart may be missing. Equal entries are not always repeated.

Assays:
[1] = molecular target: T1, recombinant human IL-17A/F (heterodimer) (human, UniProt Q16552 24-155; Q96PD4 31-163); assay: cell-based or functional assay
T1 sequence 1: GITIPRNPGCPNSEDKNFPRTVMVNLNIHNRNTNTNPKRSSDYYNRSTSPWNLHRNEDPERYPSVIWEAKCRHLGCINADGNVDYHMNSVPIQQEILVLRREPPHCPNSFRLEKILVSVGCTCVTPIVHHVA
T1 sequence 2: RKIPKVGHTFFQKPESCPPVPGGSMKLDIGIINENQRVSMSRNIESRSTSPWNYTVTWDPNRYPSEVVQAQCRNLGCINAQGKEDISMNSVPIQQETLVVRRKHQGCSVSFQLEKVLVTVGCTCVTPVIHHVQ

[2] = molecular target: T2, recombinant human IL-17A (human, UniProt Q16552 24-155); assay: cell-based or functional assay
T2 sequence: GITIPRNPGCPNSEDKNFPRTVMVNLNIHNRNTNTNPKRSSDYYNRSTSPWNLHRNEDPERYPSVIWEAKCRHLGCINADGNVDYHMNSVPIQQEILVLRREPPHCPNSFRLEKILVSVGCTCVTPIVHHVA

[3] = molecular target: T1, recombinant human IL-17A/F (heterodimer); assay: competitive ELISA in solution (method of Friguet et al.)
Procedure: (§1) For this determination a competitive ELISA with the various isoforms was performed.
(§2) Appropriate concentrations of the respective antigens and monoclonal antibodies were mixed in assay buffer and incubated overnight with continuous shaking at room temperature. The same monoclonal antibodies in the same concentration, but without antigen were used as positive reference (100% value). Pre-incubated antibodies were added to the plates. The plates were incubated with continuous shaking and washed 4× with 250 μL/well TBS-TRP.

[4] = molecular target: T2, recombinant human IL-17A; assay: as above
Procedure: as §1, §2

B1: OREG-203 (antibody, V domains shown)
VH: QAQLQQSGAELVKPGASVKMSCKAFGYTFTTFPIEWMKQNHGKSLEWIGNFHPYNDYTKYNEKFKGKAKLTVEKSSRTVYLELSRLTSDDSAVYYCARGAYYGDYVSHTMDFWGQGTSVTVSS
VL: NIVLTQSPASLAVSLGQRATISCRASESVDSYGNSFMHWYQQKPGQPPKLLIYLASNLESGVPARFSGSGSRTDFTLTIDPVEADDAAIYYCQQNNEDPLTFGAGTKLELK
notes: also called mAb OREG-203; Ab OREG-203
IC50, neutralization of IL-6 production in normal human dermal fibroblasts [1]: 30.2 ng/ml and 0.2 nM | IC50, neutralization of IL-6 production in normal human dermal fibroblasts [2]: 115 ng/ml and 0.76 nM | Ka [3]: 1e+09 M⁻¹ | Kd [3]: 1 nM | Ka [4]: 1.4e+09 M⁻¹ | Kd [4]: 0.714 nM

B2: OREG-207 (antibody, V domains shown)
VH: QAQLQQSGAELVKPGASVKMSCKAFGYTFTTFPIEWMKQNHGKSLEWIGNFHPYNDYTKYNEKFKGKAKLTVEKSSSTVYLELSRLTSDDSAVYYCARGAYYGDYVSHTMDFWGQGTSVTVSS
VL: NIVLTQSPASLAVSLGQRATISCRASESVDSYGNSFMHWYQQKPGQPPKLLIYLASNLESGVPARFSGSGSRTDFTLTIDPVEADDAAIYYCQQNNEDPLTFGAGTKLELK
notes: also called mAb OREG-207; Ab OREG-207
IC50, neutralization of IL-6 production in normal human dermal fibroblasts [1]: 40.1 ng/ml and 0.26 nM | IC50, neutralization of IL-6 production in normal human dermal fibroblasts [2]: 96.5 ng/ml and 0.64 nM | Ka [3]: 2.67e+09 M⁻¹ | Kd [3]: 0.375 nM | Ka [4]: 1.54e+09 M⁻¹ | Kd [4]: 0.649 nM

B3: Fab fragment of OREG-203 (Fab, V domains shown)
VH: QAQLQQSGAELVKPGASVKMSCKAFGYTFTTFPIEWMKQNHGKSLEWIGNFHPYNDYTKYNEKFKGKAKLTVEKSSRTVYLELSRLTSDDSAVYYCARGAYYGDYVSHTMDFWGQGTSVTVSS
VL: NIVLTQSPASLAVSLGQRATISCRASESVDSYGNSFMHWYQQKPGQPPKLLIYLASNLESGVPARFSGSGSRTDFTLTIDPVEADDAAIYYCQQNNEDPLTFGAGTKLELK
IC50, neutralization of IL-6 production in normal human dermal fibroblasts [1]: 15.3 ng/ml and 0.306 nM | IC50, neutralization of IL-6 production in normal human dermal fibroblasts [2]: 75.9 ng/ml and 1.52 nM

B4: OREG-210 (antibody, V domains shown)
VH: QVQLKESGPDLVAPSQSLSITCTVSGFSLTSYGIHWVRQPPGKGLEWLVVIWSDGTTTYNSALKSRLSISKDNSKSQVFLKMNSLQTDDTAMYYCASSYDYLYHYTMDYWGQGTSVTVSS
VL: DVVMTQTPLSLPVSLGDQASISCRSSQSLVHSNGNTYFHWYLQKPGQSPKLLIYKVSNRFSGVPDRFSGSGSGTDFTLKISRVEAEDLGVYFCSQSTHVPLTFGAGTNLELK
notes: also called mAb OREG-210; Ab OREG-210
IC50, neutralization of IL-6 production in normal human dermal fibroblasts [1]: 167 ng/ml and 1.1 nM | IC50, neutralization of IL-6 production in normal human dermal fibroblasts [2]: 110 ng/ml and 0.74 nM | Ka [3]: 3.4e+08 M⁻¹ | Kd [3]: 2.94 nM | Ka [4]: 6.4e+08 M⁻¹ | Kd [4]: 1.56 nM

B5: F(ab')2 fragment of OREG-210 (other)
VH: QVQLKESGPDLVAPSQSLSITCTVSGFSLTSYGIHWVRQPPGKGLEWLVVIWSDGTTTYNSALKSRLSISKDNSKSQVFLKMNSLQTDDTAMYYCASSYDYLYHYTMDYWGQGTSVTVSS
VL: DVVMTQTPLSLPVSLGDQASISCRSSQSLVHSNGNTYFHWYLQKPGQSPKLLIYKVSNRFSGVPDRFSGSGSGTDFTLKISRVEAEDLGVYFCSQSTHVPLTFGAGTNLELK
IC50, neutralization of IL-6 production in normal human dermal fibroblasts [1]: 1160 ng/ml and 11.6 nM | IC50, neutralization of IL-6 production in normal human dermal fibroblasts [2]: 1050 ng/ml and 10.5 nM

B6: Fab fragment of OREG-210 (Fab, V domains shown)
VH: QVQLKESGPDLVAPSQSLSITCTVSGFSLTSYGIHWVRQPPGKGLEWLVVIWSDGTTTYNSALKSRLSISKDNSKSQVFLKMNSLQTDDTAMYYCASSYDYLYHYTMDYWGQGTSVTVSS
VL: DVVMTQTPLSLPVSLGDQASISCRSSQSLVHSNGNTYFHWYLQKPGQSPKLLIYKVSNRFSGVPDRFSGSGSGTDFTLKISRVEAEDLGVYFCSQSTHVPLTFGAGTNLELK
IC50, neutralization of IL-6 production in normal human dermal fibroblasts [1]: 605 ng/ml and 12.1 nM | IC50, neutralization of IL-6 production in normal human dermal fibroblasts [2]: 1120 ng/ml and 22.4 nM
